Legend:
[1] = biological target: IL-2R βγ heterodimer on human cells (NK92 cells, NK and T cells of PBMC) (human) (UniProt P14784); experiment: cell-based or functional assay
[2] = biological target: murine IL-2R α-subunit, recombinant monomeric (murine) (UniProt P01590); experiment: SPR, against the human IL-2R α-subunit as reference
[3] = biological target: murine IL-2R βγ heterodimer (β knob γ hole Fc fusion) (murine) (UniProt P16297); experiment: SPR, against the human IL-2R βγ heterodimer as reference
murine IL-2R βγ heterodimer (β knob γ hole Fc fusion) (murine), sequence (P16297 27-240, chain 1 of 2): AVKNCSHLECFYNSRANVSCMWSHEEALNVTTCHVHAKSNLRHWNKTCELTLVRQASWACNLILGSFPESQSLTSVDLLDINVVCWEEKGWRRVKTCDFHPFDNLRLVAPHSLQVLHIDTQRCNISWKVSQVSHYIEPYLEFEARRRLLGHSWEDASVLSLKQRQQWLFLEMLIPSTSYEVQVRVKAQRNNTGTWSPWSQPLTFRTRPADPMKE
murine IL-2R βγ heterodimer (β knob γ hole Fc fusion) (murine), sequence (P34902 23-263, chain 2 of 2, further chain): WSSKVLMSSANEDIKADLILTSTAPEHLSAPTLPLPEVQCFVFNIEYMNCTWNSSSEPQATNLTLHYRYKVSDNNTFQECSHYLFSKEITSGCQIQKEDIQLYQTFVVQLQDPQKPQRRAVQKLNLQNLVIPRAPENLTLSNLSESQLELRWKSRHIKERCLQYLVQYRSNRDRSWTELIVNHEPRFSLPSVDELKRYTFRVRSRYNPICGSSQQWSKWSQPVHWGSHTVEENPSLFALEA

IL-2R βγ heterodimer on human cells (NK92 cells, NK and T cells of PBMC) (human), sequence (P14784 27-551, chain 1 of 2): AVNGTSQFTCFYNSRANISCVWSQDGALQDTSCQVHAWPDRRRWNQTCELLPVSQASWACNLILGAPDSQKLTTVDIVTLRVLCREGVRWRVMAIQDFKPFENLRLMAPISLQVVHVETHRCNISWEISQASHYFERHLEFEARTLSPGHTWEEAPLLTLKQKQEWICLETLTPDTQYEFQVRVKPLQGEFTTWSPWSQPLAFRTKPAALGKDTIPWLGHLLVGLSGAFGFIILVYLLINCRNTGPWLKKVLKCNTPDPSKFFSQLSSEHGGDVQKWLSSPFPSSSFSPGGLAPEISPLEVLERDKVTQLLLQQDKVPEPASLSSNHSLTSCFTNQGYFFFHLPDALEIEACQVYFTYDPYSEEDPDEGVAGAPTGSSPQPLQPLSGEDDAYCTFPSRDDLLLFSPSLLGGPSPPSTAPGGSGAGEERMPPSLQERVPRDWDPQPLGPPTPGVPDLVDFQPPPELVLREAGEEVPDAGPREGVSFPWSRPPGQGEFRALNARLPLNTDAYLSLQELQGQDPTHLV
IL-2R βγ heterodimer on human cells (NK92 cells, NK and T cells of PBMC) (human), sequence (P31785 23-369, chain 2 of 2, further chain): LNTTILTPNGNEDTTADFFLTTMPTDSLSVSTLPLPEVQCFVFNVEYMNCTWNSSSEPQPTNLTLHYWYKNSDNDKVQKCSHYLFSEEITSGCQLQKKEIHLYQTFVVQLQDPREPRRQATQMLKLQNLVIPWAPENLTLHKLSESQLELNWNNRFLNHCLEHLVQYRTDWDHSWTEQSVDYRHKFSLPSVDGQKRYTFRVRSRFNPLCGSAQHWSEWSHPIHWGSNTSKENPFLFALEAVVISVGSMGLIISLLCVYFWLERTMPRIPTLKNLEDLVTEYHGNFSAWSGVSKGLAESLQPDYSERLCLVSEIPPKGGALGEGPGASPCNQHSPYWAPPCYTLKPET
murine IL-2R α-subunit, recombinant monomeric (murine), sequence (P01590 22-236 limits assumed): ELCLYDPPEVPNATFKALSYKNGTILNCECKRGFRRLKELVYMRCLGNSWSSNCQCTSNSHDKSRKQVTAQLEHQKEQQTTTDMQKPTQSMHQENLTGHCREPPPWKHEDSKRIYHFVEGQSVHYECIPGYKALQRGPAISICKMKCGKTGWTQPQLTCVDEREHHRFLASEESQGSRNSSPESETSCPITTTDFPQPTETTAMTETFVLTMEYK

EC50 of IFN-γ release by NK92 cells [1] [nM]	EC50 of STAT5 phosphorylation, CD8+ T cells [1] [nM]	EC50 of STAT5 phosphorylation, NK cells [1] [nM]	fold lower affinity than for the human receptor [2] [fold]	fold lower affinity than for the human receptor [3] [fold]	Substance
4.1	1.07	0.222	–	–	Proleukin (Novartis/Chiron), commercially available wild-type IL-2 (from UniProt P60568 22-153) (ligand)
–	–	–	10	10	human IL-2
